According to publication PMC6836825, “K^+ Channel-SEC11 Binding Exchange Regulates SNARE Assembly for Secretory Traffic^1” (Plant Physiology, 2019):
Each block holds one binder with its values, some of them ahead of it.

Target: T1, Flag3-SNAP33-6His (Arabidopsis thaliana, UniProt Q9S7P9 1-300)
T1 construct: Qbc-SNARE SNAP33, Arabidopsis thaliana, At5G61210; not shown: Flag3, N-terminal, kept; 6His, C-terminal, kept
T1 sequence (looked up): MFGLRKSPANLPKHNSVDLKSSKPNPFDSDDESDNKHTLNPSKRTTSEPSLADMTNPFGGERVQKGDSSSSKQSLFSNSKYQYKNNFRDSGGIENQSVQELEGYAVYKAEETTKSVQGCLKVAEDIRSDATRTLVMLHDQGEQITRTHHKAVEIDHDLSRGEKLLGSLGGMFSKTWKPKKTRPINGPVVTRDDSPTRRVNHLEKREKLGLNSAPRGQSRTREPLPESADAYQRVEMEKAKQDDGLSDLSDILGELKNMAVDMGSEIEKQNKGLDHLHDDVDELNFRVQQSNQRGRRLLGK
Assay: pull-down; KC1^67–91-Flag3-StrepII or KAT1^1–63-Flag6-StrepII immobilised on Strep-Tactin resin; one prey at a time in 3-fold excess; overnight at 4°C; SDS-PAGE, Coomassie
Conditions: both partners purified

binding result: binds
B1: KC1^67–91-Flag3-StrepII (domain or fragment, Arabidopsis thaliana, UniProt P92960 67-91, looked up)
chain: IEDDNPSSKPFIVLHFDRRYRLWEL
notes: KC1 K+ channel subunit, Arabidopsis thaliana, At4g32650, N-terminal cytosolic domain residues 67-91; also called KC1^67–91 peptide; KC1^67–91-3flag-StrepII; not shown: Flag3, C-terminal, kept; StrepII, C-terminal, kept

binding result: binds
B2: KAT1^1–63-Flag6-StrepII (domain or fragment, Arabidopsis thaliana, UniProt Q39128 1-63, looked up)
chain: MSISWTRNFFERFCVEEYNIDTIKQSSFLSADLLPSLGARINQSTKLRKHIISPFNPRYRAWE
notes: KAT1 K+ channel, Arabidopsis thaliana, At5g46240, N-terminal cytosolic domain residues 1-63; also called KAT1^1–63 peptide; KAT1^1–63-6flag-StrepII; not shown: Flag6, C-terminal, kept; StrepII, C-terminal, kept
